Measurements as given in the supplement of paper PMC12764529.
± gives the half width of the 95% confidence interval.

How the values were obtained:
[1] = folding stability dG unfold from trypsin proteolysis; higher = more stable
Summary of the method: (§1)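 Digests were run with trypsin and chymotrypsin at 11 concentrations in threefold dilutions, plus a no-protease condition, on designed mini-proteins in a PA-tagged cDNA display construct. The mini-proteins were under 80 residues, had no cysteine, and were kept only when AlphaFold2 dimer inter-PAE was above 15. After sequencing, Bayesian fitting of the counts gave K50, from which unfolding free energy was derived against a sequence-predicted unfolded-state K50 and a shared folded-state K50, per protease or combined.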

[2] = folding stability dG unfold from chymotrypsin proteolysis; higher = more stable
Summary of the method: as §1

[3] = folding stability dG unfold (combined trypsin and chymotrypsin); higher = more stable
Summary of the method: as §1

Sequence	folding stability dG unfold [1] [kcal/mol]	folding stability dG unfold [2] [kcal/mol]	folding stability dG unfold [3] [kcal/mol]
SAGKKTIIIKIPPNMTVEELKKALKNLKPNEKVTITVNGKKYTITVKDGKIKITFPENVKNMILIIEVKSAG [r5_373_TrROS_Hall]	2.08 ± 0.13	2.54 ± 0.057	2.4 ± 0.36
SAGGMTITFTLEFDLEDDRRITVTATIDPTGDDVLITVRVELTLPNGEKLEFTATIVLPPGAHPDELISAGG [r13_3_TrMRF]	4.15 ± 0.38	5.25 ± 0.24	5.53 ± 0.85
SAGGKEIKIEVELDEDGNLTVTITLPDGRVVRITFTPGKITVEVFDAETGELVEEKTLTADELLELLSAGGS [r8_476_TrROS_Hall]	3.46 ± 0.16	3.81 ± 0.13	3.67 ± 0.13
SAGGSAGGSAGDNFKIKIESFNIMRLPDGYVMISIKIEITVGDKPVEITIMIIIPPGAPISAGGSAGGSAGG [r17_352_TrROS]	4.03 ± 0.15	5.74 ± 0.18	5.68 ± 0.41
TTVTTPKNGLININLTDKKGNKYTFTAPVKDPVETLEKLKKLIKDLFPEYKDVKVKVVSVDGINIKVVVDIS [r1_389_TrMRF]	2.66 ± 0.11	3.57 ± 0.061	3.26 ± 0.1
SAGGSAGGKIPPNMEIEPWRFGGKPYFLIRMPNGSYQVFEFKGDKLKIKETIPVPPGDWILIKFSAGGSAGG [r6_476_TrROS]	1.48 ± 0.04	1.98 ± 0.16	1.81 ± 0.14
SAGGKKIVIFIGPPEQMDRMQEQHPDEPVIPIPRDALQDPEPAKNLIKELQEKGKDVEIYLFKDFKPSAGGS [r8_376_TrROS]	-0.176 ± 0.31	-0.287 ± 0.4	-0.239 ± 0.17
SAGGSAKDEKVVVIVRREVRLRSRPKVDLGEGNPRVEFESSVEVRVPFLVLPEDDPVARELRELEGSAGGSA [r15_470_TrMRF]	-0.46 ± 0.21	-0.255 ± 0.24	-0.26 ± 0.1
SAGGSAGGSAGTLTLRVQLFDEDGRLVAEREVELEVELPPPPPVELEFDEETRELRRRRLSAGGSAGGSAGG [r17_348_TrROS_Hall]	1.12 ± 0.18	0.811 ± 0.22	0.965 ± 0.24
SAGMIKPEEIVEKVKAIFEEEGLENVTVKVYYDEETDEIFVEVEVELEPEEEEKAQAILDKIKKELGLESAG [r5_9_TrMRF]	3.02 ± 0.29	2.38 ± 0.23	2.85 ± 0.21
SAGGSAGGSNLEEFLAKLPPDVEVVVDPETGTVLVRFPKTGTVAVFRVDAAEGKVELVEVKPVSAGGSAGGS [r12_82_TrMRF]	3.88 ± 0.11	3.72 ± 0.049	3.77 ± 0.073
SAGGSAGGSAGKPVTLTDANGTPYSVSQVTTDPNSATVTATFTSPTSSTTHTATYPVTPASAGGSAGGSAGG [r11_290_JUSTAS]	1.03 ± 0.046	0.728 ± 0.13	0.791 ± 0.14
SAGGGAPNKPVGKETFTVKIGDKWVKVEVTHYATSGTAEVKVTGPNGGPLGTFTVKIDPEKGGVYFGSAGGS [r16_798_TrMRF]	0.728 ± 0.056	2.44 ± 0.074	2.11 ± 0.14
SAGGSWLPPGMWIISISIKWEMREMTFSPNGQPEMEMRLEIDIQVIKIPPPPPPPKEDAKNPNGKWSAGGSA [r2_495_TrROS]	0.946 ± 0.15	2.22 ± 0.3	1.66 ± 0.35
SMKLKPGQTAKIVEIKENYIYIEVNGKKYKISLEELKEKGYEIKIVNGKIVEIRPKPKKKLSEEELKKLKSA [r9_842_TrROS_Hall]	1.13 ± 0.077	1.04 ± 0.16	1.16 ± 0.15
SAGGKKKYKLIIKIKFKKGDIDKAKKEVEAIANKIKDEFEKKGVKVKVKVSYDKDNDIVYIEVEFEVPSAGG [r13_755_TrMRF]	3.36 ± 0.12	4.43 ± 0.082	4.24 ± 0.14
SAGGKEVKITFKAPKEEAVPKVKKAAEEYGVTVKSIDYDPETGKVTVVVDDSVPEEKVKEAFEKVLKSAGGS [r8_338_TrMRF]	1.53 ± 0.078	1.75 ± 0.082	1.75 ± 0.21
MKKKVTISIKRKSEVKYTKFPNGEVVPVEDLGGLTVTIEVPESELEELLKKLDIPEDEIEEITVTITPEASS [r1_351_JUSTAS]	1.08 ± 0.18	-0.175 ± 0.8	0.648 ± 0.42
SAGGSAKIDIEVDPEDGYIRIKLEVQHNDEPVKATMWYPLPDDGMFIRIRFDMPNGKIEEIETIPPSAGGSA [r2_331_TrROS]	2.69 ± 0.14	4.07 ± 0.12	3.91 ± 0.27
SAGGSAGGSAGGSKIEIEEENGELKITIEVDGKKYEITIPKDMTLEEALKKALEKLPGLSAGGSAGGSAGGS [r4_191_TrROS_Hall]	3.45 ± 0.69	2.5 ± 0.087	3.09 ± 0.18
SAGGSAFRVQTWDDGKPRKIPIGESLDDLKDQIDDNPNYPIYIEFPNGKPFHMPWSDIKNMIDQLKSAGGSA [r15_36_TrROS]	0.172 ± 0.17	-0.196 ± 0.47	-0.0315 ± 0.28

Sequence	folding stability dG unfold [1] [kcal/mol]	folding stability dG unfold [2] [kcal/mol]	folding stability dG unfold [3] [kcal/mol]
SAGGSAGGSAGIVIKAKSPDEAVEALKKLFEKTGKADINIKPVKVLPDGNVLVEAGIDNKSAGGSAGGSAGG [r17_430_TrMRF]	-0.403 ± 0.054	-1.43 ± 0.61	-0.689 ± 0.34
SEEEIVEEPPPETRTLTLELVDPETGELVATITVSPDGTVTLTVRTPDGEEKTITVPEGMSLEEALAAALSA [r9_346_TrROS_Hall]	3.19 ± 0.21	4.39 ± 0.24	4.18 ± 0.45
SAGMTAEELAEELAKELEVEVTLENGEKRRVRVEVKVERLPDGTLLLTAKVENEETGETFEIKIEIKLESAG [r5_397_TrROS_Hall]	2.9 ± 0.13	4.3 ± 0.37	3.67 ± 0.33
SAGGGSVSVTPVKEIPGPGTTTLYRETHPDDRTVLITYNPATGTVTVTTYKGNTKTSTTTYNTPESLSAGGS [r16_457_JUSTAS]	1.05 ± 0.035	1.53 ± 0.13	1.42 ± 0.098
SAGGSAGGSAGGSKPEVIKLKVKKIKVKKKKYDKNGKLVEEEEKEITVETTVFVPKEDLSAGGSAGGSAGGS [r4_425_TrROS_Hall]	-0.381 ± 0.18	0.336 ± 0.14	0.182 ± 0.17
SAGGMTITVRVKAENPEEAIKKVEETVRSLGYRVVELKEVEVRYDEATGEVFVEATVEVEPLPEEEGSAGGS [r16_155_TrMRF]	4.37 ± 0.13	4.81 ± 0.12	4.8 ± 0.12
SAGGSAGGSAKPKITVTVEEVTNEDGSTYYRATARIEETGRTIEIYVRRDDLGKPVAIKITSAGGSAGGSAG [r3_432_TrROS_Hall]	1.82 ± 0.058	2.4 ± 0.085	2.18 ± 0.12
SAGMTVKVKVEVKTKYFDKNGKLVKEEKKTVEVEVEVKIVIELKPEDLEKAKELAEKLGIEITEEELKSAGG [r19_315_TrROS_Hall]	1.26 ± 0.29	1.86 ± 0.17	1.74 ± 0.56
SAGGSAGGSMVEITFPPDLSEEEAEALAKELEEKYNKKVKITKVPPEIPVPLPQYDPTNWVEVSAGGSAGGS [r12_159_JUSTAS]	-0.0502 ± 0.06	-0.0306 ± 0.11	-0.108 ± 0.2
SAGGSAGGSAGMTVTVPPDLDPESAIAALKAAAPASVKTVTLTIVDGEGPTTTVTVDITGSAGGSAGGSAGG [r17_215_JUSTAS]	-0.402 ± 0.18	0.209 ± 0.11	0.00145 ± 0.096
SAGGSAGGSAGEKVKLVITTTVTLPALDPEGGEFVGPVTFTETIVLDMNPEDAARLLAAASAGGSAGGSAGG [r17_283_TrMRF]	1.4 ± 0.034	2.675 ± 0.013	2.23 ± 0.056
SAGGLKELLEALKEGNLEEALEALKKLGIEEVKIEIKPVVRVVITVEVPKEKVKVKVEVRVFLPEEELSAGG [r13_359_TrROS_Hall]	1.94 ± 0.13	1.24 ± 0.23	1.71 ± 0.33
SAGGSAGGSAGGSVWIRMPPSKIKDLLDKFGIEPIEIEKMPPGWVYIRITPDALKEAGVFSAGGSAGGSAGG [r7_587_TrROS]	0.839 ± 0.14	0.887 ± 0.3	0.946 ± 0.16
SAMKVKVIVINPDGKPQEFEFEAEEGDPEKLVEEVEAEIKKLHPNSDIKFKAEVLEVKPDGEITILVSDSAG [r14_622_TrMRF]	2.03 ± 0.19	2.77 ± 0.05	2.52 ± 0.14
SAGGPKPKTYDIMIPFDSEEEAEKLMENPEWAKEIAKEIAPLFPGYDIKVEVSWHPETGYFMVKITVSAGGS [r16_320_TrROS]	3.21 ± 0.18	4.12 ± 0.18	4.01 ± 0.13
SEFPESVPVDWVERELTFSSSSKEELEKKIKELLKNIEIEVSYDPKTNKYTLKIKFPSKEKAEKVEELLSSA [r9_764_JUSTAS]	2.22 ± 0.067	3.268 ± 0.026	2.96 ± 0.14
SAGGSAGGSKKPKAKIKKIEFFPEGNKIVALVEFPDKVIKEIVFENLPPEEAIKKALEFAKKGSAGGSAGGS [r20_181_TrMRF]	1.08 ± 0.036	1.42 ± 0.039	1.31 ± 0.12
SAGGKNDVKTKTYEIEKDGGKITIEFEKLPDGKYKATVTYPDGKKETLVFDLGEGKEEEFAKEIAKKKSAGG [r13_296_TrMRF]	1.46 ± 0.12	3.05 ± 0.067	2.48 ± 0.38
SAGLAAAIAAAGAIAEALGVTVRVEVFRDGELVGTFEIPAPVGDGEPVSLEVRLPDPEVTVRFELRIPGSAG [r14_728_TrMRF]	2.26 ± 0.14	2.51 ± 0.037	2.5 ± 0.11
SAGGSAGGSAKPTFDNVENLSLEELAKKIAKEAAEKYPDAKNVEVEFRLPNGKSYRIVVDVDSAGGSAGGSA [r18_449_TrMRF]	1.21 ± 0.036	1.26 ± 0.12	1.26 ± 0.096
SAFKIERDPGNGQRKIKIEIPIIFPMGPEMRNMFKNMIKQWLAKHNPNVDIEIDIIPVKSPEQALEQIGSAG [r14_406_TrROS]	1.48 ± 0.15	2.61 ± 0.3	1.98 ± 0.47
